Drawing on the Immune Epitope Database (IEDB), this text covers IC50 and Kd for three sequences.

For experiment [1], the target named is HLA-B*40:02. Put plainly: IEDB peptide-MHC binding, cellular MHC/competitive/fluorescence; ≥ and ≤ were set here for values at or beyond the usual limits of such assays. As to conditions: source organism: Homo sapiens.
The target in experiment [2] is HLA-A*02:03. Put plainly: IEDB peptide-MHC binding, purified MHC/competitive/fluorescence; filed as Kd, often an IC50 or EC50 that approximates it; ≥ and ≤ were set here for values at or beyond the usual limits of such assays. As to conditions: source organism: Yersinia pestis KIM10+.
Experiment [3] concerns the target HLA-B*83:01. The description is as above. The following applies: source organism: Yersinia pestis KIM10+.
The target in experiment [4] is HLA-A*02:01. Described as above. As to conditions: source organism: Yersinia pestis KIM10+.
For experiment [5], the target named is HLA-A*30:01. The experiment is described as above. As to conditions: source organism: Yersinia pestis KIM10+.
Experiment [6] concerns the target HLA-A*11:01. Described as above. The following applies: source organism: Yersinia pestis KIM10+.
For experiment [7], the target named is HLA-B*15:01. The description is as above. The following applies: source organism: Yersinia pestis KIM10+.
For experiment [8], the target named is HLA-C*06:02. Described as above. As to conditions: source organism: Yersinia pestis KIM10+.
The target in experiment [9] is HLA-A*68:02. Described as above. As to conditions: source organism: Yersinia pestis KIM10+.
Experiment [10] concerns the target HLA-B*15:42. The experiment is described as above. As to conditions: source organism: Yersinia pestis KIM10+.
Experiment [11] addresses HLA-B*39:01. The experiment is described as above. The following applies: source organism: Yersinia pestis KIM10+.
For experiment [12], the target named is HLA-B*27:20. The description is as above. As to conditions: source organism: Yersinia pestis KIM10+.
Experiment [13] deals with HLA-B*07:02. The experiment is described as above. As to conditions: source organism: Yersinia pestis KIM10+.
Experiment [14] addresses HLA-A*02:06. Described as above. The following applies: source organism: Yersinia pestis KIM10+.
Experiment [15] deals with HLA-B*45:06. The experiment is described as above. The following applies: source organism: Yersinia pestis KIM10+.
Experiment [16] has as its target HLA-A*31:01. Nature of the experiment: IEDB peptide-MHC binding, purified MHC/direct/fluorescence; filed as Kd, often an IC50 or EC50 that approximates it; ≥ and ≤ were set here for values at or beyond the usual limits of such assays. As to conditions: source organism: Yersinia pestis.
For experiment [17], the target named is HLA-B*18:01. The description is as above. As to conditions: source organism: Yersinia pestis.
For experiment [18], the target named is HLA-B*73:01. The description is as above. As to conditions: source organism: Yersinia pestis CA88-4125.
For experiment [19], the target named is HLA-B*57:01. The experiment is described as above. The following applies: source organism: Yersinia pestis.
The target of experiment [20] is HLA-B*58:01. The description is as above. The following applies: source organism: Yersinia pestis.
The target of experiment [21] is HLA-B*15:09. Described as above. The following applies: source organism: Yersinia pestis CA88-4125.
For experiment [22], the target named is HLA-B*27:05. Described as above. As to conditions: source organism: Yersinia pestis.
In experiment [23] the target is HLA-A*01:01. The experiment is described as above. As to conditions: source organism: Yersinia pestis.
The target of experiment [24] is HLA-A*26:01. Described as above. As to conditions: source organism: Yersinia pestis CA88-4125.

For orientation: IC50 means the concentration that inhibits the measured activity by half. A higher IC50 goes with lower potency. In general, Kd refers to the equilibrium constant for the complex coming apart. The low end stands for higher affinity, the high end for lower affinity.

Take REASPSRLS: in experiment [1], the IC50 stood at 1900 nM.
Still for that read-out and setting: the same measure for REFSKEPEL: 800 nM.
Take SRWAISHWL: the Kd in experiment [2] was 205 nM; in experiment [3], no less than 5000 nM; in experiment [4] it was 76.2 nM; in experiment [5] it was 2690 nM; in experiment [6], no less than 20000 nM; in [7], 1840 nM. For the same sequence, the Kd in [8] was 82.2 nM; in experiment [9] it was no less than 20000 nM; in experiment [10], no less than 5000 nM; in [11] it was 36.3 nM; in experiment [12], 4.8 nM; in experiment [13], no less than 20000 nM. Moreover, the dissociation constant Kd in [14] is 8.6 nM; in experiment [15], no less than 5000 nM; in experiment [16] it was no less than 20000 nM; in [17] it was no less than 20000 nM; in experiment [18], 167 nM; in experiment [19] it was no less than 20000 nM. For the same sequence, the Kd in [20] was no less than 20000 nM; in [21], no less than 20000 nM; in experiment [22] it was 20.3 nM; in [23] it was no less than 20000 nM; in experiment [24] it was no less than 20000 nM.
